The text below walks through data of patent US20110262445A1 (CEPHALON AUSTRALIA, published 2011).

In test [1] the target is T1, human IL-12 (human, UniProt P29460 23-328; P29459 23-219).
T1 construct: Recombinant (Peprotech); FLAG-tagged IL-12 in the flow cytometry assays, biotinylated in the IL-12Rβ2 assay; also called hIL-12
T1 sequence 1: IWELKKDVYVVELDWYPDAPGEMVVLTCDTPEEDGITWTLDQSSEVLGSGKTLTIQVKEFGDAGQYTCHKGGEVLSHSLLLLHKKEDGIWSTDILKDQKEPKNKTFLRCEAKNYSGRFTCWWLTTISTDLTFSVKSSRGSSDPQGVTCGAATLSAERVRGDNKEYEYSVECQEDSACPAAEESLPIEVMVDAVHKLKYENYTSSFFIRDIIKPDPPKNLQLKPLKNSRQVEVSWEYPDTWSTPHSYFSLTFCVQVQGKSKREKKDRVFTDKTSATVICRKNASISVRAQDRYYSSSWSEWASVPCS
T1 sequence 2: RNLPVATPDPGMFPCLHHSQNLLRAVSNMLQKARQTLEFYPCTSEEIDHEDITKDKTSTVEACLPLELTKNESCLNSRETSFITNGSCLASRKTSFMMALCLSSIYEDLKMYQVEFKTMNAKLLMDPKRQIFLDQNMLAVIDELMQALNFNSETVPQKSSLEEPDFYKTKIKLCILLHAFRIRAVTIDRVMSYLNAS
Description: ELISA, coated IL-12. An outline of the steps:
(§1)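 Cytokine at 1 μg/mL in carbonate buffer pH 9.6 was coated overnight at 4° C onto Maxisorp plates and blocked with 1% BSA in PBS for 1 hour at 25° C. Antibody titrations were bound for 1 hour at 25° C, then detected with goat anti-human IgG or anti-murine immunoglobulin HRP (1:2000, 1 hour). TMB was developed and stopped with 1M HCl. The binding result is absorbance at 450 nm (reference 620 nm).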
(In general: ELISA stands for enzyme-linked immunosorbent assay.)

Test [2] addresses T2, human IL-23 (human, UniProt P29460 23-328; Q9NPF7 20-189).
T2 construct: Recombinant (Ebioscience); HIS-tagged in flow cytometry, biotinylated in some assays; also called hIL-23; rhIL-23
T2 sequence 1: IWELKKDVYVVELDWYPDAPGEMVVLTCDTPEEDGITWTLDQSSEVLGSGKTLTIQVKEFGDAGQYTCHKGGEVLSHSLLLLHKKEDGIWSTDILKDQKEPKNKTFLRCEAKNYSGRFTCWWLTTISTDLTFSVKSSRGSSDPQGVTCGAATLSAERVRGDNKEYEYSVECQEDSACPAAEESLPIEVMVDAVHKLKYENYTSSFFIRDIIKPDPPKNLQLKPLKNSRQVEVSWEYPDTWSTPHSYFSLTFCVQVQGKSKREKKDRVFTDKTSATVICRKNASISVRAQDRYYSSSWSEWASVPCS
T2 sequence 2: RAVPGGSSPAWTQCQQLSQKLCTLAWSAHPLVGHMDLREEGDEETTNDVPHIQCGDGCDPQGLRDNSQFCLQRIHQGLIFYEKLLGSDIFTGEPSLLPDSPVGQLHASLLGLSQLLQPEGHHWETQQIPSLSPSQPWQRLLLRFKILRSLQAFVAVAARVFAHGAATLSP
Put plainly: ELISA, coated IL-23. An outline of the steps: as §1

B1: Antibody 104 (antibody, human IgG1, kappa)
heavy chain: not shown
light chain: DIQMTQSPSSVSASVGDRVTITCRASQSISINLHWYQQKPGKAPKLLIYFASQSISGVPSRFSGSGSGTDFSLTINSLQPEDFARYYCQQSNSFPLTFGGGTKVEIKRTVAAPSVFIFPPSDEQLKSGTASVVCLLNNFYPREAKVQWKVDNALQSGNSQESVTEQDSKDSTYSLSSTLTLSKADYEKHKVYACEVTHQGLSSPVTKSFNRGEC
On to B1, for which the binding result in test [1] and in test [2] was “binds” throughout.

B2: Antibody 105 (antibody, human IgG1, kappa, V domains shown)
VH: EVQLVQSGAEVKKPGATVKISCTASGYTFSDYYLHWVRQAPEKGLEWMGWIDPENGDTEYAPKFQGRVTITADTSTDTGYLELSSLRSEDTAVYYCAANKELRYFDVWGQGTLVTVSS
VL: DIQMTQSPSSVSASVGDRVTITCRASQSISINLHWYQQKPGKAPKLLIYFASQSISGVPSRFSGSGSGTDFSLTINSLQPEDFARYYCQQSNSFPLTFGGGTKVEIKR
With B2, the binding result in test [1] and in test [2] was “binds” throughout.

B3: Antibody 106 (antibody, human IgG1, kappa, V domains shown)
VH: EVQLVQSGAEVKKPGATVKISCKASGFTFSDYYLHWVRQAPEKGLEWMGWIDPENGDTEYAPKFQGRVTITADTSTDTGYLELSSLRSEDTAVYYCAANKELRYFDVWGQGTLVTVSS
VL: DIQMTQSPSSVSASVGDRVTITCRASQSISINLHWYQQKPGKAPKLLIYFASQSISGVPSRFSGSGSGTDFSLTINSLQPEDFARYYCQQSNSFPLTFGGGTKVEIKR
Take B3: the binding result in test [1] and in test [2] was “binds” throughout.

B4: Antibody 114 (antibody, human IgG1, kappa, V domains shown)
VH: EVQLVQSGAEVKKPGATVKISCKASGYTFSDYYLHWVRQAPEKGLEWMGWIDPENGDTEYAPKFQGRVTMTADTSTDTGYLELSSLRSEDTAVYYCAANKELRYFDVWGQGTLVTVSS
VL: DIQMTQSPSSVSASVGDRVTITCRASQSISINLHWYQQKPGKAPKLLIYFASQSISGVPSRFSGSGSGTDFSLTINSLQPEDFARYYCQQSNSFPLTFGGGTKVEIKR
For B4, the binding result in test [1] and in test [2] was “binds” each time.

B5: Antibody 112 (antibody, human IgG1, kappa, V domains shown)
VH: EVQLVQSGAEVKKPGATVKISCKASGYTFSDYYLHWVRQAPEKGLEWIGWIDPENGDTEYAPKFQGRVTITADTSTDTGYLELSSLRSEDTAVYYCAANKELRYFDVWGQGTLVTVSS
VL: DIQMTQSPSSVSASVGDRVTITCRASQSISINLHWYQQKPGKAPKLLIYFASQSISGVPSRFSGSGSGTDFSLTINSLQPEDFARYYCQQSNSFPLTFGGGTKVEIKR
B5: the binding result in test [1] and in test [2] was “binds” in each case.

B6: Antibody 117 (antibody, human IgG1, kappa, V domains shown)
VH: EVQLVQSGAEVKKPGATVKISCKASGYTFSDYYLHWVRQAPEKGLEWMGWIDPENGDTEYAPKFQGRVTITADTSTNTGYLELSSLRSEDTAVYYCAANKELRYFDVWGQGTLVTVSS
VL: DIQMTQSPSSVSASVGDRVTITCRASQSISINLHWYQQKPGKAPKLLIYFASQSISGVPSRFSGSGSGTDFSLTINSLQPEDFARYYCQQSNSFPLTFGGGTKVEIKR
On to B6, for which the binding result in test [1] and in test [2] was “binds” in each case.

B7: Antibody 116 (antibody, human IgG1, kappa, V domains shown)
VH: EVQLVQSGAEVKKPGATVKISCKASGYTFSDYYLHWVRQAPEKGLEWMGWIDPENGDTEYAPKFQGRVTITADTSSDTGYLELSSLRSEDTAVYYCAANKELRYFDVWGQGTLVTVSS
VL: DIQMTQSPSSVSASVGDRVTITCRASQSISINLHWYQQKPGKAPKLLIYFASQSISGVPSRFSGSGSGTDFSLTINSLQPEDFARYYCQQSNSFPLTFGGGTKVEIKR
Turning to B7, the binding result in test [1] and in test [2] was “binds” in each case.

B8: Antibody 110 (antibody, human IgG1, kappa, V domains shown)
VH: EVQLVQSGAEVKKPGATVKISCKASGYTFSDYYLHWVKQAPEKGLEWMGWIDPENGDTEYAPKFQGRVTITADTSTDTGYLELSSLRSEDTAVYYCAANKELRYFDVWGQGTLVTVSS
VL: DIQMTQSPSSVSASVGDRVTITCRASQSISINLHWYQQKPGKAPKLLIYFASQSISGVPSRFSGSGSGTDFSLTINSLQPEDFARYYCQQSNSFPLTFGGGTKVEIKR
As for B8, the binding result in test [1] and in test [2] was “binds” in each case.

B9: Antibody 109 (antibody, human IgG1, kappa, V domains shown)
VH: EVQLVQSGAEVKKPGATVKISCKASGYTFKDYYLHWVRQAPEKGLEWMGWIDPENGDTEYAPKFQGRVTITADTSTDTGYLELSSLRSEDTAVYYCAANKELRYFDVWGQGTLVTVSS
VL: DIQMTQSPSSVSASVGDRVTITCRASQSISINLHWYQQKPGKAPKLLIYFASQSISGVPSRFSGSGSGTDFSLTINSLQPEDFARYYCQQSNSFPLTFGGGTKVEIKR
Turning to B9, the binding result in test [1] and in test [2] was “binds” in each case.

B10: Antibody 108 (antibody, human IgG1, kappa, V domains shown)
VH: EVQLVQSGAEVKKPGATVKISCKASGYTISDYYLHWVRQAPEKGLEWMGWIDPENGDTEYAPKFQGRVTITADTSTDTGYLELSSLRSEDTAVYYCAANKELRYFDVWGQGTLVTVSS
VL: DIQMTQSPSSVSASVGDRVTITCRASQSISINLHWYQQKPGKAPKLLIYFASQSISGVPSRFSGSGSGTDFSLTINSLQPEDFARYYCQQSNSFPLTFGGGTKVEIKR
In the case of B10, the binding result in test [1] and in test [2] was “binds” throughout.

B11: Antibody 118 (antibody, human IgG1, kappa, V domains shown)
VH: EVQLVQSGAEVKKPGATVKISCKASGYTFSDYYLHWVRQAPEKGLEWMGWIDPENGDTEYAPKFQGRVTITADTSTDTAYLELSSLRSEDTAVYYCAANKELRYFDVWGQGTLVTVSS
VL: DIQMTQSPSSVSASVGDRVTITCRASQSISINLHWYQQKPGKAPKLLIYFASQSISGVPSRFSGSGSGTDFSLTINSLQPEDFARYYCQQSNSFPLTFGGGTKVEIKR
As for B11, the binding result in test [1] and in test [2] was “binds” throughout.

B12: Antibody 107 (antibody, human IgG1, kappa, V domains shown)
VH: EVQLVQSGAEVKKPGATVKISCKASGYNFSDYYLHWVRQAPEKGLEWMGWIDPENGDTEYAPKFQGRVTITADTSTDTGYLELSSLRSEDTAVYYCAANKELRYFDVWGQGTLVTVSS
VL: DIQMTQSPSSVSASVGDRVTITCRASQSISINLHWYQQKPGKAPKLLIYFASQSISGVPSRFSGSGSGTDFSLTINSLQPEDFARYYCQQSNSFPLTFGGGTKVEIKR
As to B12, the binding result in test [1] and in test [2] was “binds” in each case.

B13: Antibody 113 (antibody, human IgG1, kappa, V domains shown)
VH: EVQLVQSGAEVKKPGATVKISCKASGYTFSDYYLHWVRQAPEKGLEWMGWIDPENGDTEYAPKFQGRATITADTSTDTGYLELSSLRSEDTAVYYCAANKELRYFDVWGQGTLVTVSS
VL: DIQMTQSPSSVSASVGDRVTITCRASQSISINLHWYQQKPGKAPKLLIYFASQSISGVPSRFSGSGSGTDFSLTINSLQPEDFARYYCQQSNSFPLTFGGGTKVEIKR
On to B13, for which the binding result in test [1] and in test [2] was “binds” each time.

B14: Antibody 115 (antibody, human IgG1, kappa, V domains shown)
VH: EVQLVQSGAEVKKPGATVKISCKASGYTFSDYYLHWVRQAPEKGLEWMGWIDPENGDTEYAPKFQGRVTITTDTSTDTGYLELSSLRSEDTAVYYCAANKELRYFDVWGQGTLVTVSS
VL: DIQMTQSPSSVSASVGDRVTITCRASQSISINLHWYQQKPGKAPKLLIYFASQSISGVPSRFSGSGSGTDFSLTINSLQPEDFARYYCQQSNSFPLTFGGGTKVEIKR
As to B14, the binding result in test [1] and in test [2] was “binds” each time.
